According to US20240228586:

Biological target: M-L3-IL12 (masked mouse IL-12 whose linker contains 3 repeats of LSGRSDNH) (UniProt Q60837)
Sequence (Q60837 whole entry, looked up): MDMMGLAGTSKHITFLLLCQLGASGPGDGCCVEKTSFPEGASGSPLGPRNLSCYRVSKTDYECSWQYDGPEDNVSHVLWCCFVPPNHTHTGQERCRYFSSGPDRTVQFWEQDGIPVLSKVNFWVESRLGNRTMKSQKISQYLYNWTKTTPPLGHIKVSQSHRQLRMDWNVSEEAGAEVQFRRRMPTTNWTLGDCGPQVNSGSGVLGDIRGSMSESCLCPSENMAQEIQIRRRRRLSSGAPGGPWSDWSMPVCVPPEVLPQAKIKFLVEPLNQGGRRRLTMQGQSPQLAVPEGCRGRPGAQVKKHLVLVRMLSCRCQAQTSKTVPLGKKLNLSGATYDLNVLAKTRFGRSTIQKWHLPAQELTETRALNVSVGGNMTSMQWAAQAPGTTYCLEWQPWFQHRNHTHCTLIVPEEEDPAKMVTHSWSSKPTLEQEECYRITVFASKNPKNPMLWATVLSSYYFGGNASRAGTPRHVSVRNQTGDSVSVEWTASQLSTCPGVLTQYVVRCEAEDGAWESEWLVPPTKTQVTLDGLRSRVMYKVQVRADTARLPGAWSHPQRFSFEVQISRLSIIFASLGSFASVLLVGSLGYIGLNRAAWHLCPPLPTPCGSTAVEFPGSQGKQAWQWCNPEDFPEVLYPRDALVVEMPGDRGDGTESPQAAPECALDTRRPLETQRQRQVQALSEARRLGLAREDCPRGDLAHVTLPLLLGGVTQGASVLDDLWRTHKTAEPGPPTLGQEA

“recombinant human urokinase plasminogen activator” was tested, and the “in vitro cleavage, 30 min at 37° C., SDS-PAGE” value was “Decrease of molecular weight from ˜105 kDa to ˜60 kDa indicates proteolytic cleavage of IL12Rβ1-VP-IL12 and IL12Rβ1-LS-IL12”.
